Assay [1] concerns the target T1, gD tagged human FcRH3 on SVT2 cells (human, UniProt Q96P31 18-734).
T1 construct: whole, on cells; also called huFcRH3; not shown: gD tag; the construct for this FcRH is not described
T1 sequence (looked up): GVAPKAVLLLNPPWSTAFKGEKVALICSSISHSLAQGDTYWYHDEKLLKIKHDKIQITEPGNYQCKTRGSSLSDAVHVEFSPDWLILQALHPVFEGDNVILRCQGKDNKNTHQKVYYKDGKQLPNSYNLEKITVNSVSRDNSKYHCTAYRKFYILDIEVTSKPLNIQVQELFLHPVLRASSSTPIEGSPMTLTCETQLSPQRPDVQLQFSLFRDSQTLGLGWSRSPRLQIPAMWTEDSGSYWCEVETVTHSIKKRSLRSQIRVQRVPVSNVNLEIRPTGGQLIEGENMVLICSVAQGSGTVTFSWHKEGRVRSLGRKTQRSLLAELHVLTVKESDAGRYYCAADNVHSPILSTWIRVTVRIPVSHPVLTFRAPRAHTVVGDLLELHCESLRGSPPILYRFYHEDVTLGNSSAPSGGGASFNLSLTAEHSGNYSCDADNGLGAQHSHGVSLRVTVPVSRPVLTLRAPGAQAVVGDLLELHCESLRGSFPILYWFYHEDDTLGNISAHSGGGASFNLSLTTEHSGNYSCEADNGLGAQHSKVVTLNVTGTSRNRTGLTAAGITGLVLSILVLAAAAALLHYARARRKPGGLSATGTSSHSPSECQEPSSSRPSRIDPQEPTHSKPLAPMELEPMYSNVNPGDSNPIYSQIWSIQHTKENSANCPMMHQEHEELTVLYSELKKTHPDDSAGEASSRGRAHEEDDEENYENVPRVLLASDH
Nature of the assay: FACS, SVT2.MSCV.gD.FcRH3 cells, PE secondary antibody. On the technique in general: A flow cytometer gives signals particle by particle.

The target of assay [2] is T2, gD tagged human FcRH4 on SVT2 cells (human, UniProt Q96PJ5 20-515).
T2 construct: whole, on cells; also called huFcRH4; IRTA1; not shown: gD tag; the construct for this FcRH is not described
T2 sequence (looked up): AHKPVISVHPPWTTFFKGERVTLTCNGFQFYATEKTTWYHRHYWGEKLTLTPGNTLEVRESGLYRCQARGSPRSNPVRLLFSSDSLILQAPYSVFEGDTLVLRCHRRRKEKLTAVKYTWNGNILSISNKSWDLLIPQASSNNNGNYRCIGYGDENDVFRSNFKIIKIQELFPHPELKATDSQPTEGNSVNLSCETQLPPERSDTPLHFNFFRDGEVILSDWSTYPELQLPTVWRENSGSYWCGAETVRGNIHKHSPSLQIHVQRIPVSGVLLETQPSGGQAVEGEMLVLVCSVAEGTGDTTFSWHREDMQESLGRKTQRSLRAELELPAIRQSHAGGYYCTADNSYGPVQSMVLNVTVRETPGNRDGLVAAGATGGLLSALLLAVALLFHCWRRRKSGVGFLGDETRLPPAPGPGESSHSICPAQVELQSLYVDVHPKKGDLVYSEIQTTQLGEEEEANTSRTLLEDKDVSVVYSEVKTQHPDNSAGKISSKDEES
Nature of the assay: FACS, SVT2.MSCV.gD.FcRH4 cells, PE secondary antibody.

The target in assay [3] is T3, cynomolgus FcRH5 on stably transfected SVT2 cells (cynomologous monkey).
T3 construct: also called cyno FcRH5; cynoFcRH5
T3 chain: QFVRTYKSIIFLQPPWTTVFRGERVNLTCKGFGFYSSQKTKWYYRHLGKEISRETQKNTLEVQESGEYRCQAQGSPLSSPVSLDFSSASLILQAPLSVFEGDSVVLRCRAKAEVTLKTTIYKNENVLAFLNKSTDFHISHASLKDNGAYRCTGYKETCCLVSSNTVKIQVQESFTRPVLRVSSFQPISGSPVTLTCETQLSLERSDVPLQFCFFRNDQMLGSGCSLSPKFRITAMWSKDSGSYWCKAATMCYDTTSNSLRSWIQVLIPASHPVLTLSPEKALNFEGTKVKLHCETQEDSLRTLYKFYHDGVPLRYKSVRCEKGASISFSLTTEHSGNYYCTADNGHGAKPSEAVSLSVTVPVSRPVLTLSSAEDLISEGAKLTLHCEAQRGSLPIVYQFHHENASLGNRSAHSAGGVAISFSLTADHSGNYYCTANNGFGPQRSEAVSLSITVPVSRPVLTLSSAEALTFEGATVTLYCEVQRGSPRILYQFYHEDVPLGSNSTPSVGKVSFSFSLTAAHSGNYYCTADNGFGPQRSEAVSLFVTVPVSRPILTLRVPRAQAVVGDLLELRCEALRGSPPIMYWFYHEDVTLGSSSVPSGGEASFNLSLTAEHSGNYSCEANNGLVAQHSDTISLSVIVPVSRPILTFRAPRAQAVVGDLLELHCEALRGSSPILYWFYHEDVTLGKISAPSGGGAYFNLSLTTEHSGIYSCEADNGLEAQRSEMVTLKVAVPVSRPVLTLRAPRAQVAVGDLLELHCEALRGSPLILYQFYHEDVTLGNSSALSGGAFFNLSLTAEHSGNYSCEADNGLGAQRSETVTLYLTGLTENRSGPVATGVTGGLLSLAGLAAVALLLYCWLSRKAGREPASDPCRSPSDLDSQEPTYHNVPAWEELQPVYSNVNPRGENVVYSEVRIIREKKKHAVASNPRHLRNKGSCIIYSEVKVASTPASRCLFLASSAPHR
In words: Scatchard analysis: 0.5 nM 125I-labeled antibody competed with the unlabeled antibody (50 to 0.02 nM) on SVT2.cyFcRH5 cells, 4 h at 4 C; St. Error 0.064. On the procedure:
To further determine binding of the FcRH5 murine antibodies and IgG clones, binding of iodinated IgG variants to OPM2 cells expressing human FcRH5 and SVT2 cells expressing cynomologous FcRH5, Scatchard analysis was performed (Table 9A).
For Scatchard analysis, 0.5 nM I¹²⁵ labeled murine or IgG clone anti-FcRH5 was competed against unlabeled murine or IgG clone anti-FcRH5, respectively, ranging from 50 to 0.02 nM (12 step 1:2 serial dilution) in the presence of a transfected OPM2 line stably expressing human-FcRH5 and a transfected SVT2 line stably expressing cynomologous-FcRH5. After a four hour incubation at 4° C., cells were washed and cell pellet counts were read by a gamma counter (1470 WIZARD Automatic Gamma Counter; Perkin Elmer, Walthem, Mass.). All points were done in triplicate and counted for 10 minutes. The average CPM was used for Kd calculation using the New Ligand (Genentech, South San Francisco, Calif.) program.

B1: murine monoclonal antibody anti-FcRH5-13G9 (antibody, V domains shown)
VH: EVQLVQSGPELKKPGETVKISCKASGYTFTNYGMNWVKQAPGKGLKWMGWVNTYTGEPTYTDDFKGRFAFSVETSASTVFLQINNLKNEDTATYFCARRSIPYYYAMDYWGQGTSLT
VL: DIVMTQSQKIMSTSVGDRVNVTCKASQNVGSNVAWYHQKPGQSPKALIYSASYRYSGVPDRFTGSGSGTDFTLTISNVQSEDLAEYFCQQYKTWTFGGGTKLEIKR
notes: Whole murine IgG from hybridoma; also called 13G9.1.1; mu13G9
What is called Kd is the equilibrium constant for the complex coming apart. Low values mean higher affinity, high ones lower affinity. Take B1: the binding result in assay [1] and in assay [2] was “no binding (tested: 1.0 ug per about 10^6 cells (p-1120))” in each case. Besides, the Kd in assay [3] was found to be 540 pM.

The values are drawn from patent US20130089497A1 (Genentech, published 2013).
